Molecular target: the molecule itself
Assay: SEC; 100 μg tag-free cjDapE on Superdex 200 10/300, 20 mM Tris pH 8.0, 150 mM NaCl, 5 mM β-mercaptoethanol; size by calibration with gel-filtration standards

B1: Campylobacter jejuni DapE (N-succinyl-L,L-diaminopimelic acid desuccinylase) (enzyme, UniProt Q0P9K4 1-365, looked up)
chain: MNAKEFLIELLKFKSVTPNDDGALNFIAMELSDFEAFFIEKEGIKNLLLTKKFKDEGEHLAFGGHVDVVPAGEGWSNNAFAPVEKEGFIYARGAQDMKSGVAAFVDAAKNADFKGARLSLILTSDEEGEAIYGTKAVLEWMQERDMLPDYAVVAEPTCVKKIGDSIKIGRRGSINGKLLIRGKQGHVAYPEKCINPVHDFAPVLKLLAGFDLDPGSAEFSPSKIVITDIRGGMGVCNVTPNDLKLMFNVRNSPDTSLEDVKSYVEKICHGLNYELELKQSSEAFLTNIDNKIVQKMNESVQKITHEVPELNTKGGTSDARYFAKYGVKVVEFGVCNDRIHAIDERVSIEEFEKLCLVFKDLIENF
notes: DapE of Campylobacter jejuni (ATCC 33291 genomic DNA), gene dapE (cj1048c), 365-residue protein, residues 1-365; in one crystal also captopril; The His6 tag was removed with thrombin; also called cjDapE; cjDapEZn; source: E. coli BL21 (DE3), purified (Ni-NTA, thrombin cleavage, Mono Q anion exchange); not shown: His6, N-terminal, cleaved
With B1 the “stoichiometry N” value was 2.

From PMC12731327, “Structural Analysis of the Putative Succinyl-Diaminopimelic Acid Desuccinylase DapE from Campylobacter jejuni: Captopril-Mediated Structural Stabilization” (Current Issues in Molecular Biology, 2025)
